The values below come from article PMC11369174 (Molecular Systems Biology, 2024).

What all share (assay): fluorescence polarisation; saturation binding: dilution series of the protein domain added to 10 nM FITC-labelled peptide; 50 mM sodium phosphate pH 7.4, 0.05% Tween (protein dialysed in 50 mM sodium phosphate with 1 mM DTT; CASK kinase domain with 100 mM NaCl in addition); quadratic fit; technical triplets
Holding throughout (conditions): both partners purified

The target of one test is T1, USP7 MATH/TRAF domain (human).
T1 construct: USP7, human, MATH/TRAF domain; source: E. coli BL21 (DE3) Gold, purified (glutathione or Ni2+ beads)

The target in a further test is T2, MAP1LC3A ATG8 domain (human).
T2 construct: MAP1LC3A, human, ATG8 domain; source: E. coli BL21 (DE3) Gold, purified (glutathione or Ni2+ beads)

In the next test the target is T3, GABARAPL1 ATG8 domain (human).
T3 construct: GABARAPL1, human, ATG8 domain; source: E. coli BL21 (DE3) Gold, purified (glutathione or Ni2+ beads)

A further test concerns the target MAP1LC3B ATG8 domain (human, UniProt Q9GZQ8 1-120).

What is called Kd is a measure of binding affinity in units of concentration. Read a low Kd as a tighter complex.

Where no end group is shown, it is not given here.

B1: FITC-MDM2 (peptide)
chain: DYSQPSTSSSIIY
modifications: also: FITC label, position not given here
In the test with USP7 MATH/TRAF domain, B1 showed a dissociation constant (Kd) of 0.5 µM.

B2: FITC-SQSTM1 (peptide)
chain: DDDWTHLSSK
modifications: also: FITC label, position not given here
B2: the values for the dissociation constant Kd with MAP1LC3A ATG8 domain, with GABARAPL1 ATG8 domain and with MAP1LC3B ATG8 domain were 0.68 µM, 3.7 µM and 1.4 µM, respectively.
